Measurements: the supplement of paper PMC12042874
± gives the uncertainty stated by the source.

assay: amyloid nucleation score (Sup35N fusion, yeast selection) (log enrichment); library NNK1; higher = more nucleation; inactive = no reads after selection
Procedure, shortened: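 In psi-negative yeast, Sup35N fusions carrying peptides of 20 random codons were induced with 100 μM copper sulfate for 24 hours. The cells then grew 7 days at 30°C on medium lacking adenine and uracil, and plasmid inserts from input and output were Illumina-sequenced, excluding sequences with under 100 input reads. Nucleation score is the DiMSum log enrichment of output over input reads, centred on the mode score of non-aggregating sequences.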

Point of comparison: GPSRNGWFNATLGHTLLSNT, amyloid nucleation score 0.638 ± 0.42. Against it:
- GLNYLNFTREYYHLTWVVVP — higher, 4.47 ± 0.091
- GLRCFCTFHCMWFVLNSSN — within error, 0.025 ± 0.34
- GLRYFKLLLSEGSR — within error, -0.209 ± 1
- GLRYSVYNCFLVCRGRREWP — higher, 5.54 ± 0.057
- GLSAEYFHFPVKRAVSMTLV — within error, -0.049 ± 0.6
- GLSGYSRVFMTADDVGVRVW — within error, -1.18 ± 1.5
- GMRIGC — within error, 0.023 ± 0.95
- GMSDRQWYMTRTYCLSGPAV — within error, 0.134 ± 0.23
- GMVSIL — within error, -0.278 ± 1.2
- GNCPNT — within error, 0.367 ± 0.75
- GNFMNRCAFRRMGYSTISIN — within error, 1.35 ± 0.47
- GNFMRLRWNVKFL — within error, -0.016 ± 0.72
- GNLSPSLCGHILLVTLIKGW — within error, 0.291 ± 0.39
- GNSFISV — within error, -0.088 ± 0.81
- GNSHMFIIAYSTYMLYTQTL — within error, 0.845 ± 0.55
- GNSMSHASTVKVFLAQLGGD — within error, -1.04 ± 2.1
- GNTVRYVKRMYY — within error, -0.056 ± 0.5
- GNVKSTRWFESV — within error, 0.72 ± 0.78
- GPGPCWKPITGGWRTRKFTR — within error, 0.61 ± 0.56
- GPVSGHRPIVRD — within error, -0.179 ± 1.1
- GQAGGWTARGQSSDIDLGQR — within error, -0.146 ± 0.63
- GQDAPEDAMSVRRILVSGLA — within error, -0.109 ± 1.5
- GQIDGCGTRVNT — higher, 2.17 ± 0.14
- GRCSKYCGFASATCMNGGVS — within error, 0.032 ± 0.32
- GRFGVGVWW — within error, 0.127 ± 0.46
- GRHSWINGYKVEV — higher, 6.938 ± 0.055
- GRLFWVNVTLNLRDMNYSDM — within error, 1.09 ± 0.5
- GRLGITSMMPLGCVINWPRG — higher, 3.02 ± 0.13
- GRSCKFCYVTWVVPEP — within error, 1.25 ± 0.2
- GRTHEEYF — within error, 0.048 ± 1.2
- GRTVPDYLMVRSATNIRYGF — within error, -1.19 ± 1.7
- GRYTYDTMFTGWGASDELHI — within error, 1.14 ± 0.97
- GSCVWFSGNRVPTFWWSGDS — within error, -0.046 ± 0.31
- GSDGVCFNKNLNSWIYMLST — within error, 0.805 ± 0.64
- GSDTNSNRLIMLMFGTVFCA — higher, 2.84 ± 0.16
- GSGYFDGVIFIYLT — lower, -1.11 ± 1.1
- GSHWPYDGWWISYLWFHLR — within error, 0.858 ± 0.38
- GSIPDCGIGICRYKLSGIMK — within error, 0.047 ± 0.63
- GSLFYVRLLYRGCNTEITSK — within error, 0.925 ± 1.1
- GSMLCGEVERMSECKESGGP — lower, -0.354 ± 0.48
- GSMLLHLIILSILFFDRVES — within error, 0.148 ± 0.29
- GSNFTKVCILPSLHRTLLVG — within error, -0.222 ± 1.4
- GSNKRHSYTLVLSRNVYPSG — within error, 0.014 ± 0.49
- GSPLWLVVPVPGEHVSSLSL — within error, -0.047 ± 0.36
- GSRCRRLWDM — within error, -0.02 ± 0.55
- GSRYLGTPFRDIMLHVAIRW — within error, 1.08 ± 0.57
- GSSFI — within error, 0.127 ± 0.57
- GSSMLHSFSFGGPALVCCVF — higher, 7.167 ± 0.055
- GSTDGKGVTQRNYVNSILYV — within error, 0.472 ± 0.78
- GSWGVRVFHFFARSRP — within error, 0.032 ± 0.79
- GTCFCFITVSLLLVPVVLSD — within error, -1.02 ± 2.7
- GTCTMTKSFMIDIF — within error, 0.235 ± 0.25
- GTFSGQKLCYVCVSLSGFG — within error, 0.005 ± 0.5
- GTFSGRKEL — within error, 0.463 ± 0.3
- GTGLVAMVAT — lower, -1.24 ± 1.1
- GTGRVLVIAKALNYCCIS — higher, 6.811 ± 0.054
- GTLFYTDPLLCIVYLINLCR — within error, -0.33 ± 0.56
- GTSLRSGWRYCEFTRRSCLV — within error, 0.068 ± 0.6
- GTSTHIIFGMAVSSVRRYHM — within error, 1.33 ± 0.33
- GTTCGSLHRAWGLAKTGCNW — lower, -0.388 ± 0.42
- GTTFIRLIYFVYMARTTTEF — lower, -1.35 ± 1.1
- GTTLTDSVCYRGLNFPRLY — within error, -0.435 ± 1.9
- GTYSKG — within error, 0.7 ± 0.97
- GVCVNVKLLNWFKSRGTSSR — higher, 1.91 ± 0.38
- GVDLVSAIYGTSGHTVWMAF — within error, -0.054 ± 0.52
- GVEVAFDVLEETRQWPEYYR — within error, 1.49 ± 0.49
- GVGMAPATLGPETHEKSELM — within error, 0.282 ± 0.3
- GVGRGCYSMACCSAGRLTDG — within error, -0.122 ± 0.85
- GVHSTEKNEWTQTFQSGR — within error, -0.103 ± 0.98
- GVHYYHLASWTWISFLITRR — within error, 0.424 ± 0.85
- GVLLLIQSGNCRWRRSSRAP — within error, 0.344 ± 0.65
- GVLSIVVKSR — lower, -2.2 ± 1.7
- GVMCIMYNFSHYYLSVVNNR — higher, 7.77 ± 0.083
- GVPYR — within error, 0.044 ± 0.68
- GVRCRLLRIPFVSISRSGWR — within error, 0.743 ± 0.58
- GVTMVISPPYVMAGRSDMFL — within error, -0.031 ± 0.65
- GVVGNTHQVPNRGRRSRFLL — lower, -1.54 ± 1.7
- GVWDGKRSYGSLQSWAFVPE — within error, -0.138 ± 0.41
- GVWVGIICKINLKYAFR — within error, 1.23 ± 0.34
- GWTCYLSVGRIRF — higher, 1.94 ± 0.11
- GWTTYPSNN — within error, 0.996 ± 0.37
- GYACYFSSSDYCWVAPHCGL — within error, 1.01 ± 0.14
- GYASAVVHHVGWNPTVGSLM — within error, -0.115 ± 0.42
- GYCVLVTLLGNTNEYPAGCP — within error, 0.563 ± 0.41
- GYEDRRSRCSIWVVRFLNVL — lower, -0.605 ± 0.8
- GYEEFGVGRTSVPMETARLK — lower, -0.406 ± 0.44
- GYFCGMDLCTKEGLTHYEY — lower, -0.736 ± 0.72
- GYFVSMSTDYSLSWRYICSA — lower, -1.16 ± 0.67
- GYFVYYFLFIYCVFRVFSTL — higher, 4.82 ± 0.12
- GYHDGISMFSCVYSCYQSVS — higher, 5.92 ± 0.061
- GYLLCAG — within error, 0.549 ± 0.71
- GYMCLSL — within error, 0.395 ± 0.29
- GYNFKRVSNFSVYGLVSYSN — within error, 0.046 ± 1.6
- GYRSIGASGTQDLSQVVLNK — within error, 0.901 ± 0.98
- HAGLQRALTPQIRLFSGLAS — within error, -0.268 ± 1.4
- HAKNSRIYSWLFLCSIKWG — within error, 0.396 ± 0.3
- HARTSRVRNDSSRAALNARW — lower, -0.392 ± 0.36
- HCMGRACPHS — higher, 5.11 ± 0.11
- HCRPFFSVEINKCLSC — higher, 5.15 ± 0.1
- HCSSFNILRMNDNE — within error, 0.398 ± 0.23
- HDLHFFHGVAARQNVRRAYR — within error, 0.724 ± 1
- HDLTWVSTSESFFSLMGHAS — lower, -0.28 ± 0.29
- HDLVKVFSFCVWP — higher, 3.02 ± 0.19
- HDQSYSHSGSNGFRQKNEAN — within error, 1.32 ± 0.5
- HDSAELDSRYNSASCVSLWL — within error, -0.213 ± 1.1
- HDSTGHGEYVVGPEPFFPCA — within error, 0.024 ± 0.4
- HESLWKFESSFADKNRTVWN — within error, 1.32 ± 0.45
- HFPSHLVLRETERFKQLHCG — within error, 0.374 ± 0.62
- HFSFLSVDKRHWAFGPLCRK — higher, 7.358 ± 0.073
- HFVGMMMKSGGFARLTYNKG — within error, 0.443 ± 0.45
- HGINET — within error, 0.357 ± 0.48
- HGKYQGTDRYAETGSISGGT — lower, -0.395 ± 0.37
- HGPHYLLITGRGTRDNQSRD — lower, -0.721 ± 0.65
- HHIDPHDSFIS — within error, 0.711 ± 0.93
- HHLDPGQTHEIVSCSTWFTF — lower, -0.397 ± 0.29
- HILGPLIRSMMIFSCLVSVV — within error, 1.29 ± 0.36
- HIRLAQ — within error, 0.157 ± 0.76
- HISGLPVWLSCSWFWPKRLL — within error, 0.08 ± 0.32
- HIVQRCFHVIYCSRVFYVLY — within error, 0.386 ± 0.53
- HKCVLELFSLIFLGGYFFLR — within error, 0.041 ± 0.45
- HKNSTVKSVWQDLMSDVDVD — within error, -0.028 ± 0.43
- HLFRYSGTTSAV — within error, 0.386 ± 0.53
- HLLNMNSDLRTHCYVVWT — lower, -0.264 ± 0.25
- HLLWETSMQRLMSHIFTSSR — within error, 0.022 ± 0.43
- HLMDSSYGSGSGCSTKTSCV — within error, 0.061 ± 0.28
- HLSLGINVPTCFLSEKALLV — within error, 1.25 ± 0.68
- HLVGWESR — within error, 0.476 ± 0.79
- HLVRLTFVMLFGGNLWISS — within error, 0.91 ± 0.26
- HMLWNNVRIF — within error, 0.09 ± 0.6
- HNCTTGVTFKSEIASILVQP — lower, -0.261 ± 0.4
- HNGDCMITACNTGVLAGYIS — higher, 1.88 ± 0.26
- HNHADATQKKCGVQ — lower, -0.112 ± 0.28
- HNIAIAPARWCVSSIRSG — lower, -0.53 ± 0.45
- HNTSLYVTLNSSTR — higher, 6.2 ± 0.09
- HNVFDNLHMDSDKRMANSV — within error, 0.428 ± 0.4
- HNVQGRWFFRAHWMSYKHTI — within error, 0.249 ± 0.62
- HNWSCQVHRDINLDRGAKES — higher, 1.79 ± 0.4
- HPIEWSKVSDNIRRQSGCCG — within error, 0.754 ± 0.33
- HPLAAVSKLCRRSRLGLSSR — within error, -0.124 ± 0.35
- HPMKCFQANQFINIYRNDVA — higher, 7.136 ± 0.059
- HPPNFVNVSW — within error, -0.023 ± 0.51
- HQEAGLGSMVQTNAHATAKP — within error, -0.081 ± 1
- HQIPCPFRSRLARPGHLLEI — within error, -0.612 ± 1
- HSCTTLPL — within error, -0.461 ± 0.79
- HSIDLGTFDGFFKIRLSSTT — within error, 0.598 ± 0.78
- HSLAGLGIIGRCAKLVQAQS — within error, 0.48 ± 0.25
- HSLGTCRFFVIAHSLK — within error, 0.583 ± 0.69
- HSLLWPLGFAQ — within error, 0.184 ± 0.67
- HSWCMSSSSIKFVCLENDLL — higher, 6.804 ± 0.061
- HTQYSSRYGFMCSRWIVSGV — within error, 0.684 ± 0.7
- HTSCRTVQHLKVWFPVK — within error, 1.25 ± 0.74
- HVCKRRFRFRGLTILCRFTL — within error, -0.769 ± 1.1
- HVGIDIAVTWLQVKRVAMAS — within error, 0.037 ± 0.31
- HVRHNVYISVCEVARDKRRG — higher, 5.12 ± 0.08
- HVSSSE — within error, -0.174 ± 1.1
- HVTKMNCPLCQVKLGNYPVY — lower, -0.546 ± 0.49
- HVTNSWNSKGLRTSSGDTNV — within error, 0.305 ± 0.4
- HWLRYGDRIHMDNYNTSFFV — higher, 1.42 ± 0.12
- HWMFFYRDIFCVCVNSFL — higher, 4.17 ± 0.085
- HWWVGKRLLLHPWVA — within error, 0.224 ± 0.31
- HYACRRSVERSKRRGVRGSM — within error, 0.039 ± 0.46

In the case of GSSFVI, the amyloid nucleation score is reported as “inactive”.
For HAEWGGDAKPTRYRRRNEAG, the amyloid nucleation score was “inactive”.
In the case of HEYDLDKGTS, the amyloid nucleation score is reported as “inactive”.
For HHKTFV, the amyloid nucleation score was “inactive”.
With HLINLSDEIQYSYCNKRMVS the amyloid nucleation score was “inactive”.
In the case of HRYYSYSWGLWLSTTWEYFS, the amyloid nucleation score is reported as “inactive”.
In the case of HSATGQIGRALLTSSCVCL, the amyloid nucleation score is reported as “inactive”.
With HYFPVIDQAICFDSFRPMPV the amyloid nucleation score was “inactive”.
